Tested on: Escherichia coli TOP10
Assay: shrunken log2 fold change of peptide-encoding DNA abundance (4.5 h post-induction vs induction); higher = less antimicrobial activity (less host growth inhibition)
Details: time post-induction: 4.5 h; library: site-saturation at positions 5, 18, 19, 20
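Also: peptides expressed intracellularly from a pBAD plasmid library in pooled LB shake-flask culture, induced with 0.3% L-arabinose, DNA abundance read by NGS, three biological replicates, DESeq2 with apeglm shrinkage.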

| Sequence | shrunken log2 fold change |
| --- | --- |
| RRIRNRPPRLPRPRPRPFKGPRP | -0.0902 |
| RRIRTRPPRLPRPRPRPIPPPRP | 0.384 |
| RRIRFRPPRLPRPRPRPCNYPRP | -0.72 |
| RRIRGRPPRLPRPRPRPTNIPRP | 0.298 |
| RRIRYRPPRLPRPRPRPYNMPRP | -1.09 |
| RRIRFRPPRLPRPRPRPWVVPRP | 0.0143 |
| RRIRSRPPRLPRPRPRPELYPRP | -0.00809 |
| RRIRARPPRLPRPRPRPKRVPRP | 0.455 |
| RRIRYRPPRLPRPRPRPGWYPRP | -0.344 |
| RRIRWRPPRLPRPRPRPHQAPRP | 0.257 |
| RRIRCRPPRLPRPRPRPWHSPRP | 0.112 |
| RRIRSRPPRLPRPRPRPPIIPRP | -0.135 |
| RRIRFRPPRLPRPRPRPEQGPRP | 0.313 |
| RRIRARPPRLPRPRPRPSYSPRP | -0.349 |
| RRIRLRPPRLPRPRPRPWSRPRP | -0.264 |
| RRIRNRPPRLPRPRPRPWDAPRP | -0.157 |
| RRIRWRPPRLPRPRPRPGHEPRP | 0.0994 |
| RRIRRRPPRLPRPRPRPLDMPRP | -0.114 |
| RRIRNRPPRLPRPRPRPPQWPRP | 0.315 |
| RRIRDRPPRLPRPRPRPSFYPRP | -0.128 |
| RRIRHRPPRLPRPRPRPYPFPRP | -0.772 |
| RRIRIRPPRLPRPRPRPPFAPRP | 0.143 |
| RRIRLRPPRLPRPRPRPNDAPRP | 0.229 |

| Sequence | shrunken log2 fold change |
| --- | --- |
| RRIRWRPPRLPRPRPRPDFDPRP | 0.0791 |
| RRIRCRPPRLPRPRPRPRRTPRP | 0.54 |
| RRIRERPPRLPRPRPRPHGGPRP | -0.0234 |
| RRIRGRPPRLPRPRPRPPPHPRP | 1.26 |
| RRIRLRPPRLPRPRPRPTFAPRP | 0.394 |
| RRIRTRPPRLPRPRPRPEQFPRP | -0.0905 |
| RRIRKRPPRLPRPRPRPIREPRP | 0.057 |
| RRIRYRPPRLPRPRPRPTVCPRP | -0.0618 |
| RRIRDRPPRLPRPRPRPFKIPRP | -0.249 |
| RRIRPRPPRLPRPRPRPPWCPRP | 0.0891 |
| RRIRGRPPRLPRPRPRPQLDPRP | 0.646 |
| RRIRYRPPRLPRPRPRPVQIPRP | -0.146 |
| RRIRKRPPRLPRPRPRPEYHPRP | -0.0122 |
| RRIRTRPPRLPRPRPRPIDTPRP | -0.157 |
| RRIRCRPPRLPRPRPRPKQWPRP | -0.0437 |
| RRIRMRPPRLPRPRPRPRCNPRP | 0.105 |
| RRIRFRPPRLPRPRPRPRPMPRP | 0.856 |
| RRIRNRPPRLPRPRPRPHFIPRP | 0.121 |
| RRIRERPPRLPRPRPRPVVFPRP | -0.0884 |
| RRIRMRPPRLPRPRPRPSFMPRP | 0.0821 |
| RRIRIRPPRLPRPRPRPDLVPRP | -0.201 |
| RRIRGRPPRLPRPRPRPSNWPRP | 1.12 |
| RRIRCRPPRLPRPRPRPWIEPRP | -0.123 |

| Sequence | shrunken log2 fold change |
| --- | --- |
| RRIRMRPPRLPRPRPRPPFMPRP | 0.296 |
| RRIRSRPPRLPRPRPRPANDPRP | 0.0254 |
| RRIRHRPPRLPRPRPRPSCPPRP | -0.217 |
| RRIRKRPPRLPRPRPRPLDYPRP | -0.202 |
| RRIRCRPPRLPRPRPRPIFMPRP | -0.269 |
| RRIRARPPRLPRPRPRPFLSPRP | -0.107 |
| RRIRDRPPRLPRPRPRPLERPRP | 0.464 |
| RRIRWRPPRLPRPRPRPNNFPRP | -0.0323 |
| RRIRDRPPRLPRPRPRPCGFPRP | -0.0017 |
| RRIRSRPPRLPRPRPRPKDEPRP | 0.382 |
| RRIRGRPPRLPRPRPRPFIKPRP | -0.484 |
| RRIRCRPPRLPRPRPRPLRQPRP | 0.713 |
| RRIRKRPPRLPRPRPRPNSWPRP | 0.222 |
| RRIRTRPPRLPRPRPRPMRVPRP | -0.036 |
| RRIRERPPRLPRPRPRPEKLPRP | -0.296 |
| RRIRARPPRLPRPRPRPCLVPRP | 0.0528 |
| RRIRVRPPRLPRPRPRPVYEPRP | -0.127 |
| RRIRKRPPRLPRPRPRPSSLPRP | -0.557 |
| RRIRTRPPRLPRPRPRPIIVPRP | -0.0629 |
| RRIRGRPPRLPRPRPRPIDRPRP | 0.127 |
| RRIRPRPPRLPRPRPRPHCHPRP | -0.0394 |
| RRIRCRPPRLPRPRPRPQQMPRP | 0.013 |
| RRIRTRPPRLPRPRPRPATKPRP | 0.0756 |

| Sequence | shrunken log2 fold change |
| --- | --- |
| RRIRIRPPRLPRPRPRPSCMPRP | -0.637 |
| RRIRERPPRLPRPRPRPTWTPRP | -0.07 |
| RRIRFRPPRLPRPRPRPFETPRP | -0.158 |
| RRIRCRPPRLPRPRPRPTLAPRP | 0.645 |
| RRIRTRPPRLPRPRPRPVIWPRP | 0.128 |
| RRIRLRPPRLPRPRPRPASPPRP | 0.0633 |
| RRIRTRPPRLPRPRPRPMSYPRP | 0.0494 |
| RRIRHRPPRLPRPRPRPHCWPRP | -0.0124 |
| RRIRNRPPRLPRPRPRPDGCPRP | 0.136 |
| RRIRPRPPRLPRPRPRPEESPRP | -0.0202 |
| RRIRVRPPRLPRPRPRPWMYPRP | -0.225 |
| RRIRQRPPRLPRPRPRPPLHPRP | 0.24 |
| RRIRMRPPRLPRPRPRPAWHPRP | 0.726 |
| RRIRRRPPRLPRPRPRPPKKPRP | 1.12 |
| RRIRSRPPRLPRPRPRPTQLPRP | 0.249 |
| RRIRFRPPRLPRPRPRPWQDPRP | -0.00804 |
| RRIRERPPRLPRPRPRPTRMPRP | 0.084 |
| RRIRRRPPRLPRPRPRPRCTPRP | 0.0974 |
| RRIRNRPPRLPRPRPRPYAVPRP | -0.0739 |
| RRIRRRPPRLPRPRPRPCCMPRP | -0.18 |
| RRIRCRPPRLPRPRPRPYQEPRP | -0.276 |
| RRIRRRPPRLPRPRPRPCPCPRP | -0.176 |

From the supplement of paper PMC9112550, “Optimization of the antimicrobial peptide Bac7 by deep mutational scanning” (BMC Biology, 2022)
